From the supplement of paper PMC9170038 come the findings set out here.

In the series the test system is MS2 coat protein. The series is described as follows: apparent KD of MS2 coat protein; higher = weaker reporter binding. The conditions noted are these: Eterna round: R107. The gist of the method:
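Designed RNA switches, transcribed on-chip from Illumina sequencing clusters, were titrated with SNAP-549-labelled MS2 coat protein from 0.7 or 1.5 nM to 3 µM in twofold steps. The solution was 100 mM Tris-HCl pH 7.5, 80 mM KCl, 4 mM MgCl2, with constant ligand or without it. Apparent KD is the median over each design's normalised cluster binding-curve fits.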

The mark [1] stands for this setting: input ligand: theophylline 20 uM.
Where [2] appears, read: input ligand: theophylline 2 mM.
Setting [3] is: input ligand: tryptophan 2.4 mM.

With “AUGUUGGUCUGAAGGAGCGCGAUAACAUGAGGAUCACCCAUGUUAAAUGGUACAUGAUACUCGCAGGUAGGUCGCAGUACGACAA [Same State Arginine B GF 13]”, the “apparent KD of MS2 coat protein” value (input ligand: arginine 13.2 mM) was 18.6 nM; the “apparent KD of MS2 coat protein” value (input ligand: none) is 20.7 nM; the “apparent KD of MS2 coat protein” value under setting [1] was found to be 29.7 nM; the “apparent KD of MS2 coat protein” value under setting [2] was found to be 32.2 nM; the “apparent KD of MS2 coat protein” value under setting [3] turned out to be 25.1 nM.

As to “GUAUGGAAACAUACUAGGGUAUCGUGAGAUACCAGUACAGAAAUGUACCCUUGGCAGCUCGCGCAUACAUGAGGAUCACCCAUGU [Ex Theophylline A 9]”, the “apparent KD of MS2 coat protein” value was 19.4 nM (input ligand: arginine 13.2 mM), 26.9 nM under setting [1] and 19.7 nM under setting [3].

For “GGAUAGGACACGGCCGCCACUAGCUAGGAUACUAGCAACAUUUCCUCACAUGAGGAUCACCCAUGUAGGACCGGGUGUCCUAUCG”, the “apparent KD of MS2 coat protein” value runs as follows: (input ligand: arginine 13.2 mM) 79.9 nM; under setting [1], 145 nM; under setting [2], 112 nM.

Take “UAACAUGAGGAUCACCCAUGUUUAGAUGAACGAGGACCGGUACGGCCGCCACUCGAUAAGUGGAAAGAGCGAGGGAUUGUAUGCU [Same State Trp A GF4]”: the “apparent KD of MS2 coat protein” value by setting is: (input ligand: arginine 13.2 mM) 12.2 nM; (input ligand: none) 12.4 nM; under setting [1], 16.2 nM; under setting [2], 10.3 nM; under setting [3], 11.9 nM.

Take “GGCCUAGCGAGCGCUCGCUAGGCCGCGGAUACCAGCGAGGUCCAUCGCCCUUGGCAGCCGAACAUGAGGAUCACCCAUGUCGGUA [#1 Same State - Theophylline A Attempt #15 (HarryS)]”: the “apparent KD of MS2 coat protein” value by setting is: (input ligand: arginine 13.2 mM) 9.5 nM; (input ligand: none) 10.3 nM; under setting [1], 13.4 nM; under setting [2], 16.9 nM; under setting [3], 9.68 nM.

With “UUGACAUGAGGAUCACCCAUGUAAACUGAAGGAGCGUCGAAAAUGACAGGUAGGUCGCAGAAUAAUAAUGGUGAUCGUAAAUAUU [#12 Exclusion - Arginine A]”, the “apparent KD of MS2 coat protein” value came out at 42.6 nM (input ligand: arginine 13.2 mM); 79 nM (input ligand: none); 79.9 nM under setting [1]; 83.9 nM under setting [2]; 63 nM under setting [3].

As to “GGCACCAGGCGAAGGAGCGUGAAGACAUGAGGAUCACCCAUGUAGAGGCCCGGACAGGGUUCGCAGGUAGGUCGCGCCUGGUGCC [#1 Same State - Arginine B Attempt #9 (HarryS)]”, the “apparent KD of MS2 coat protein” value runs as follows: (input ligand: arginine 13.2 mM) 22.9 nM; (input ligand: none) 16.2 nM; under setting [1], 40.6 nM; under setting [2], 26.8 nM; under setting [3], 13.5 nM.

With “AGCUCAUAGAGUGAUACCAGACUACAUGAGGAUCACCCAUGUUUCUUUUGGUUAUCAUGUGUCCCUUGGCAGCACAAGAAGAGCA [JR_ExcTheophyB_Sub015]”, the “apparent KD of MS2 coat protein” value by setting is: (input ligand: arginine 13.2 mM) 13.4 nM; under setting [1], 20.2 nM; under setting [3], 12.7 nM.

For the sequence “GCCUAGCAGCGAAGGAGCGAGGUAACUUAAUAAAUAAAUACAAGAGGAUCACCCUUGUUUCCUCAGGUAGGUCGCGCUGCUAGGC [SSAB Alternative Aptamer #2 NP+V+V2]”, the “apparent KD of MS2 coat protein” value by setting is: (input ligand: arginine 13.2 mM) 18.2 nM; (input ligand: none) 22.6 nM; under setting [1], 25.6 nM; under setting [2], 20.9 nM; under setting [3], 23.5 nM.

In the case of “UACAUAUGCCGAAGGAGCGCGAGAUGCAAAGCAUCAUUCCUCACAUGAGGAUCACCCAUGUCGCAGGUAGGUCGCGGCAUAUGUU [ArgBX]”, the “apparent KD of MS2 coat protein” value (input ligand: arginine 13.2 mM) came to 46.7 nM; the “apparent KD of MS2 coat protein” value (input ligand: none) came to 32.5 nM; the “apparent KD of MS2 coat protein” value under setting [1] was 45.1 nM; the “apparent KD of MS2 coat protein” value under setting [2] came to 40.3 nM; the “apparent KD of MS2 coat protein” value under setting [3] was determined as 32.4 nM.

Consider “GCACGACAUGAGGAUCACCCAUGUGCAGAUACCAGUAAUGUAUGUUACCCUUGGCAGCUGAGUAGGUCUGGAGGGCUAUAGGUUU [Same State Theophylline A GF13]”, for which the “apparent KD of MS2 coat protein” value is 15.4 nM (input ligand: arginine 13.2 mM); 13.9 nM (input ligand: none); 17.2 nM under setting [1]; 15.6 nM under setting [2]; 14.1 nM under setting [3].

For the sequence “CGGUCGGUCGGCCGGUGAUUAUGGGAUGAAGGAGCGUGGGAAGCUACAGGUAGGUCGCAUCCGAACCAUGAGGAUCACCCAUGGU [SSArg A #23Alt-Ms2 Mod]”, the “apparent KD of MS2 coat protein” value is, setting by setting: (input ligand: arginine 13.2 mM) 23.2 nM; (input ligand: none) 25.1 nM; under setting [1], 26.8 nM; under setting [2], 39.2 nM; under setting [3], 21.7 nM.

For “UUAUAUAUACAUGAGGAUCACCCAUGUGAUACCAGCCUGGAAACAGGCCCUUGGCAGCACAAAUACUCCAGAAAAUAUAAUAAAU [MAT - Exclusion Theophlline A - Mod of Eli - D4]”, the “apparent KD of MS2 coat protein” value turned out to be 26.1 nM (input ligand: arginine 13.2 mM), 56.8 nM under setting [1] and 27.8 nM under setting [3].

Take “CGUAGGAUCGUGGAUACCAGUACCGCCCACGACAUGAGGAUCACCCAUGUAGGUAAUCUUUACCCUUGGCAGCCAUUUUUUUCUG [theeternabot_sameState_MS2_Theo_B_14]”: the “apparent KD of MS2 coat protein” value runs as follows: (input ligand: arginine 13.2 mM) 41 nM; under setting [1], 72.6 nM; under setting [3], 45.2 nM.

For “AUAUGAUCAUAUGAUACCAGAAAUGGUAUUCCUUUGUUUCUUACAUGAGGAUCACCCAUGUUCCCUUGGCAGCAUAUGAUCAUAU [ETHB #2]”, the “apparent KD of MS2 coat protein” value reads like this: (input ligand: arginine 13.2 mM) 159 nM; under setting [1], 221 nM; under setting [3], 238 nM.

In the case of “AUGCAGAGCACGGCCGCCACUCCAUGUAUACAUGAGGAUCACCCAUGUAAUUUGUAUUUUUUAUAGAGGACCGGGUGAAAUGCAA [JR_SSTryptoB_Sub011]”, the “apparent KD of MS2 coat protein” value worked out at 41.4 nM (input ligand: arginine 13.2 mM), 34.1 nM under setting [1] and 36.2 nM under setting [2].

As for “AAGCUGACAAGAAGGUGUUCCUAAGCUGAUACCAGCCUGGAAACAGGCCCUUGGCAGCAGCACAUGAGGAUCACCCAUGUAAUAA [(T)'-(M)'-(T1)-(T2)-(M1)-(M2)_Design2(Mismatches)]”, the “apparent KD of MS2 coat protein” value by setting is: (input ligand: arginine 13.2 mM) 101 nM; under setting [1], 172 nM; under setting [3], 115 nM.

As to “ACAUGAGGAUCACCCAUGUAGUGGCACGAUACCAGCUGAUCCCGUGGCCCUUGGCAGCGUCCGGUGUGGUCUGCCGGGAUGGAGC [WBWMULLIN]”, the “apparent KD of MS2 coat protein” value turned out to be 25 nM (input ligand: arginine 13.2 mM), 40.7 nM under setting [1] and 24.8 nM under setting [3].
